Results reported in US20180340025A1 (Novartis, published 2018).

Columns and labels:
[1] = target: T1, human LAG-3 expressed on cells (human, UniProt P18627 23-525); assay: FACS, human LAG-3 transfected CHO cells; human LAG-3 transfected CHO cells
T1 construct: whole, on cells; Treated as one protein; the host cell is named under assay; also called LAG-3-expressing CHO cells; LAG-3-transfected CHO cells
T1 sequence (looked up): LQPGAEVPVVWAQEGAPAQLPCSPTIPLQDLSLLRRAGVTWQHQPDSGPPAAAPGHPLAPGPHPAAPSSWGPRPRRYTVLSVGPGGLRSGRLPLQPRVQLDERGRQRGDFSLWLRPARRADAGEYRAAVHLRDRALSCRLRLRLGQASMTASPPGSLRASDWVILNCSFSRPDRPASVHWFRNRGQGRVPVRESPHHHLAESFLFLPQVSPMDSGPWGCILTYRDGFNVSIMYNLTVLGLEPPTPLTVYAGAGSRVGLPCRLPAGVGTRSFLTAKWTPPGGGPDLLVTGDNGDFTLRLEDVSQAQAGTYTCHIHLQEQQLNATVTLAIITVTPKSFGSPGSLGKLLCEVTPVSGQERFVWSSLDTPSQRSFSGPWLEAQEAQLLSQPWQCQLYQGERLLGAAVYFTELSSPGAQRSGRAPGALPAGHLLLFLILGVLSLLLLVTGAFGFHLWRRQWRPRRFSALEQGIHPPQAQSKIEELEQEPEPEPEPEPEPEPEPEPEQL

[2] = target: T1, human LAG-3 expressed on cells; assay: FACS, human LAG-3 transfected 300.19 cells; human LAG-3 transfected 300.19 cells
[3] = target: T1, human LAG-3 expressed on cells; assay: FACS, human T cells; human T cells
[4] = target: T2, LAG-3-huIgG1 Fc fusion protein (human, UniProt P18627 23-434, limits assumed); assay: competition binding assay, LAG-3-Ig binding to MHC class II on Raji cells
T2 construct: also called LAG-3-Ig; soluble LAG-3-Ig; not shown: human IgG1 Fc
T2 sequence (looked up): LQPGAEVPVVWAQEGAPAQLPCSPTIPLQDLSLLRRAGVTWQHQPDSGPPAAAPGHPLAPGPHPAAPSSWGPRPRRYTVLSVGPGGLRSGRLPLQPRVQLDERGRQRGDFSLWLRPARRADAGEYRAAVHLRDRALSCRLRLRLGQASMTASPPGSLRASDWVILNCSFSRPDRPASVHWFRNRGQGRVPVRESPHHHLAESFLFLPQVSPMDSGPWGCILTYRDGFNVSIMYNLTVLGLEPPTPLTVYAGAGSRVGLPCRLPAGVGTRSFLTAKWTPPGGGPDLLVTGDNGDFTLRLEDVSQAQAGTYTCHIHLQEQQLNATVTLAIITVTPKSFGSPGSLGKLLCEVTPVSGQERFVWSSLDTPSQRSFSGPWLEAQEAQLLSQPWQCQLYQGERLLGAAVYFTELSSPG

Kd [1]: 0.2 nM
Kd [2]: 13.6 nM
Kd [3]: 0.26 nM
IC50 [4]: 2.3 nM
B1: murine anti-LAG-3 monoclonal antibody BAP050 (antibody, V domains shown)
VH: QIQLVQSGPELKKPGETVKISCKASGFTLTNYGMNWVRQTPGKGLKWMGWINTDTGEPTYADDFKGRFAFSLETSASTASLQINNLKNADTATYFCARNPPYYYGTNNAEAMDYWGQGTAVTVSS
VL: DIQMTQTTSSLSASLGDRVTISCSSSQDISNYLNWYQQKPDGTVKVLIYYTSTLHLGVPSRFSGSGSGTDYSLTISNLELEDIATYYCQQYYNLPWTFGGGTKLEIK
notes: also called murine mAb; parent murine mAb
